Test: soluble on expression in E. coli; label from the status in PepcDB or PDB records

Sequence | soluble on expression in E. coli
MRPYYIAIVGSGPSAFFAAASLLKAADTTEDLDMAVDMLEMLPTPWGLVRSGVAPDHPKIKSISKQFEKTAEDPRFRFFGNVVVGEHVQPGELSERYDAVIYAVGAQSDRMLNIPGEDLPGSIAAVDFVGWYNAHPHFEQVSPDLSGARAVVIGNGNVALDVARILLTDPDVLARTDIADHALESLRPRGIQEVVIVGRRGPLQAAFTTLELRELADLDGVDVVIDPAELDGITDEDAAAVGKVCKQNIKVLRGYADREPRPGHRRMVFRFLTSPIEIKGKRKVERIVLGRNELVSDGSGRVAAKDTGEREELPAQLVVRSVGYRGVPTPGLPFDDQSGTIPNVGGRINGSPNEYVVGWIKRGPTGVIGTNKKDAQDTVDTLIKNLGNAKEGAECKSFPEDHADQVADWLAARQPKLVTSAHWQVIDAFERAAGEPHGRPRVKLASLAELLRIGLG | soluble
MRQKLGNTDQAADLVQDTFIKLLQTRDELFGIKEPRAYLTSIAKNLLIDQVRRKRIEQAYLDGLSQMKYMLDAVASPEDQMQIIQAINQLCKALEGVSEKAQQAFILHYLEGYTHKEIAERLNVSTKMIQKYLASCLIQCYQNRQDMDACI | not soluble
MRQRTIVCPLIQNDGCYLLCKMADNRGVFPGQWALSGGGVEPGERIEEALRREIREELGEQLILSDITPWTFRDDIRIKTYADGRQEEIYMIYLIFDCVSANRDICINDEFQDYAWVKPEELALYDLNVATRHTLALKGLL | not soluble
MRQVTIPLIQSKSMFCVIYRSSKRDQTYLYVEKKDDFSRVPEALMKGFGQPQLAMMLPLDGRKKLVNAELEKVKQALSEQGYYLQLPPPPEDLLKQHLSSVGQNTSPADR | not soluble
MRRAELAGLKTMAWVPAESAVEELMPRLLPVEPCDLTEGFDPSVPPRTPQEYLRRVQIEAAQCPDVVVAQIDPKKLKRKQSVNISLSGCQPAPEGYSPTLQWQQQQVAQFSTVRQNVNKHRSHWKSQQLDSNVTMPKSEDEEGWKKFCLGEKLCADGAVGPATNESPGIDYVQIGFPPLLSIVSRMNQATVTSVLEYLSNWFGERDFTPELGRWLYALLACLEKPLLPEAHSLIRQLARRCSEVRLLVDSKDDERVPALNLLICLVSRYFDQRDLADEPSLEHHHHHH | soluble
MRRIDMRSWIQNTKKLLPDLLPVMQTRMQILQYIRLMQPIGRRNLSASLGMTERVLRSEVQVLKEQNLVHVASSGMTLTEEGTALVLALEDFMKEISGLKVLEKQLKETLDLDEVFVVPGDSDESPWVKLEMGRACVTCIKDRLTANNIVAVAGGTTLAAAADMMQLDCKDLHMLFVPARGGIGEGVELEANTICAKMAQNTMSNYRLLYVPDHVSSEAYASIVTEPSVKEVLELIRSSNIVIHGIGDALTMARRRSTSEADWLKIQASEAVGEAFGYYFNEEGNVVHKVRTVGMQLEDLQNVSHVVAVAGGSSKAKAIQAVIKQGHTSILITDEGAAKQLTKGFTL | not soluble
MRRTRRPRFVLMNKMDDLNLHYRFLNWRRRIREIREVRAFRYQERFKHILVDGDTLSYHGNSGEVGCYVASRPLTKDSNYFEVSIVDSGVRGTIAVGLVPQYYSLDHQPGWLPDSVAYHADDGKLYNGRAKGRQFGSKCNSGDRIGCGIEPVSFDVQTAQIFFTKNGKRVGSTIMPMSPDGLFPAVGMHSLGEEVRLHLNAELGREDDSVMMVDSYEDEWGRLHDVRVCGTLLEYLGKGKSIVDVGLAQARHPLSTRSHYFEVEIVDPGEKCYIALGLARKDYPKNRHPGWSRGSVAYHADDGKIFHGSGVGDPFGPRCYKGDIMGCGIMFPRDYILDSEGDSDDSCDTVILSPTARAVRNVRNVMYLHQEGEEEEEEEEEEEDGEEIEPEHEGRKVVVFFTRNGKIIGKKDAVVPSGGFFPTIGMLSCGEKVKVDLHPLSG | soluble
MRSLLLLALVSASAYASFDKIKDSIQNPLARGFGDDIAWVKWEDAIETALDTDKPIFLLIHKSWCHACKALKKTFQQSNAKKAFKKLSEHFVMVNTEDDDEPFEEEYRPDGKYIPRLLFLDKNGDLLQEFKNKKAEYKNYAYYYSSPADILNSMKDVLKHFGVDIPEAKRGDKLKPKKPEGKKKEL | not soluble
MRSMKVFISIGVVLSVVNCIFFDHGDSSDGSYSDSSGEGRGHHHKHGPRPPRPNRPPRPPPATPPPTTPAPSCPGGWSLIHRRRGPWCIQVFNGAAGLEGSNNACRAQGAVLSSVENAQERETIARLGLEKMLPTGWKYGTIRVGLRKNSQGAPWYNTDGSTDANNLEGVLWSPAEPRNGNWGGVQLNCATMWLWGGIFEGGRIHGQFFTNICLANNPNDRYRGYVCGKPA | not soluble
MRSSAKQEELVKAFKALLKEEKFSSQGEIVAALQEQGFDNINQSKVSRMLTKFGAVRTRNAKMEMVYCLPAELGVPTT | soluble
MRSYAIGDIHGHLSLLQEIHGRIAADRARTGDDEAPVVHIGDLVDRGPDSRGVVEYLRQGIEQGENWVVLKGNHDRMFAGFLRDPAHQDPGLRGDLSWLHPRLGGGPTLESYGVAHAADRPVAIVHREAVALVPAEHVAFIEALPAVYRRDEALFVHAGIRPGVPLAEQIEDDLVWIREPFLSDPRDHGMLVVHGHTAIDAVTHYGNRLNLDSGAAYGGPLSAVVIEGRSVWQLGPEGRRPIALEHHHHHH | not soluble
MRTFDDMLSKQLQDEEFKKEYDAIQPEMDVIRAIVDARTSQNMTQKELAERTGINQADISKLENGTRNPSVNLLKRLADAEMVLVRGSKDNVKPTQND | not soluble
MRTPLSSVSPQLVQRFHELGFTPSSIRNFLGRPGFAAISRGEPASVLYAMRENEDSDFYPLIATFILHRPVAAEALHRVLGGSLTDQLTETGVLEIVDASKAYLTAKIDIRWLELEDDLFWVFSDTDASMIADHVPGKDHVLGVGAASLSLLATTPRSPVNSVLDLGTGSGVQALGQLRHARSVTATDVHPRALDFAEATFAGAHFDVEILDGSWFEPIKNRKFDRIVANPPFVVGPPEIEHVYRDSGLDLDGATETVVRGAVDHLHSNGTAHLLGSWVHKNGESVASRVAEWIPSHGVIAWFLQRDTVDPIQYVNTWLRDESIDPRSEIGFKRTLSWLDHFSRAKVEAVGFGYVAIQRVDDSIPSEVYFEELTHQVDDYLGDEIEEFFVRVDWLREKNRDGIAQSQFYLRPGVAKESVSVTDIDSGMGFTHLKYRITRTEGPRWSHEVDEHIVSVIAGLHPEGLTLEDVATLYAVSNGLDDESFVDAIIDPVVALVRHGILLPAEITKGW | soluble
MRTRSQVWAQKAYEKVREAAKGEGRGEYRDMALKLPVLVRQAGLSQALAFVDSRGKEAHKALGNDLAQVLGYRDLRELAEAAREAELLQYLRLTREVLAAAEWFKRFAQALIEE | soluble
MRVCVIGAGLSGLAMGHALKERGISFVCLEKAPDVGGIWRQPGAGERGPGYQSLHLNTARQLTGYADFPMPSDYPLYPRHDQVAAYLRSFAEWAGLLDHVELRTEVLSVRQDSDGSWTVVSRDADGAQSARRFEQVVVASGHHTDPALPDPLPAGADSFAGTILHSLDYRDGGDFAGRRVVVVGLGASAVDIAADLSRHAERTLLSVRRGLHIVPKQVFGMSLDEIAEAPWWNEMPFAERRRWVEQALLVARGRLSDYGLPEPDHPILSSATTLSDEILSRIRHGAVTPKPAIASFESDRVVFTDGSSEAADTVVYCTGFHMTFPFLPPGCPVAADGAVELYRRIVPADRPGLYFVGLVRPAGALTRLVEAQAQWVARLVDGAAALPGTEEMREEISTYLAGIVERYGRTRGASIQVDVSPYLAEFREPLPVLEHHHHHH | soluble
MRVELIYDKRNVGSLANATEIIRAELTKRVHRVFPDAEVNVKAMHANGINTNASKQEKSVLNRLVEEMFDEADEWLNNEF | not soluble
MRVHEPNIIFEDDKHKFIWLGLDESENEKGILTNQYLIVHEGKGYLLDPGGYFVFERVYQNVTRFVKPENIVTILYSHQDPDVIGSLNLWVDLAPNATFYVSALWERFLPHLGAELKGRIVDIPDEGMSIDFIRAIPAHFMHSPGNFHYYDTYAKIYFSGDLGAAIFKDKWYLFVEDFESHIKLMEPFHRRYIASKKAIDIWLKKIEGLEINVIAPQHGAIFEGENAKKFIQWLRNLDKVGLDLME | soluble

Reference: the DeepSol protein solubility set
